These results are taken from patent US20120039810, “APTAMER-CONTAINING COMPOSITIONS AND METHODS FOR TARGETING E-SELECTIN” (published 2012).

The target in one data set is P-selectin (Homo sapiens, UniProt P16109 P16109:42-771). Briefly: EMSA; estimated; PBS with Ca2+ and Mg2+, 5 mM MgCl2, 1% NP40. On the procedure: Equal amounts of ESTA-1 (4.6 pmoles) were incubated with increasing concentrations of the recombinant selectin proteins (0-19 pmoles) in a total volume of 10.5 μl of PBS supplemented with Ca2+ and Mg2+, 5 mM MgCl2, and 1% NP40 at room temperature for 45 minutes. The reaction mixtures were loaded onto 6% polyacrylamide tris borate gels and run at 100 V for 90 minutes at 4° C. The gel was stained with SYBR Gold nucleic acid staining dye and visualized using the Fluor Chem 8800 chemimager (Alpha Innotech). Protein-bound TA and unbound TA were quantified using ImageJ software. The binding curves were generated assuming a single binding site curve fits using the Graph Pad Prism software.
Sequence of P-selectin (P16109 42-771, one chain of several): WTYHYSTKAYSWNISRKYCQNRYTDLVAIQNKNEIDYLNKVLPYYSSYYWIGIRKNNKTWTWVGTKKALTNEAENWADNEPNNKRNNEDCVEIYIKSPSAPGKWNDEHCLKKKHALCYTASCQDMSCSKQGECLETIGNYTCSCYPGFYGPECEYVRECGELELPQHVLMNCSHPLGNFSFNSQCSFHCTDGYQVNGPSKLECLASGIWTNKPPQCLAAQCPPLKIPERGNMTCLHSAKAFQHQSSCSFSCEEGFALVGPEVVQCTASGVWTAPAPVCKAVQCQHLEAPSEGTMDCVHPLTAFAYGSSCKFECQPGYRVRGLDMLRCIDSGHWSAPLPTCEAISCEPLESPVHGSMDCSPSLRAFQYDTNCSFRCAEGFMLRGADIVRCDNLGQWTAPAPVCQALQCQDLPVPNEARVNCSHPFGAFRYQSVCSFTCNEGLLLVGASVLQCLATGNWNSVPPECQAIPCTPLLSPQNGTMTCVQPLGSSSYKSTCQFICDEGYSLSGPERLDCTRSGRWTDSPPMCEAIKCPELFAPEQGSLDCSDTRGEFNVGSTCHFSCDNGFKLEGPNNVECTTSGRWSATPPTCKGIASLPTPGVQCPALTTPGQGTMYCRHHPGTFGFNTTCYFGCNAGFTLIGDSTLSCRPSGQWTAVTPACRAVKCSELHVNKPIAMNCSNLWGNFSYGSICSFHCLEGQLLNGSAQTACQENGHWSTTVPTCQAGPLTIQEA
To evaluate the binding affinity of ESTA-1 to all selectins, an electrophoretic mobility shift assay (EMSA) was utilized. To determine the binding constant, fixed amounts of ESTA-1 was mixed with increasing amounts of recombinant protein (E-, P-, and L-selectin). ESTA-1 (4.6 pmoles) and recombinant human selectin protein (up to 19 pmoles) were incubated and subjected to electrophoresis at 4° C. The gels were stained with SYBR Gold nucleic acid stain and densitometric analysis of the unbound ESTA-1 was plotted using E-selectin or P-selectin recombinant protein. […] Based on the densitometric analysis, the binding constant calculated for the ESTA-1 binding to E-selectin was 47 nM (FIG. 11A). […]

Data set [1] has as its target T1, E-selectin on ES-Endo cells (Tet-on HMVEC) (UniProt P16581 P16581:22-610).
T1 sequence: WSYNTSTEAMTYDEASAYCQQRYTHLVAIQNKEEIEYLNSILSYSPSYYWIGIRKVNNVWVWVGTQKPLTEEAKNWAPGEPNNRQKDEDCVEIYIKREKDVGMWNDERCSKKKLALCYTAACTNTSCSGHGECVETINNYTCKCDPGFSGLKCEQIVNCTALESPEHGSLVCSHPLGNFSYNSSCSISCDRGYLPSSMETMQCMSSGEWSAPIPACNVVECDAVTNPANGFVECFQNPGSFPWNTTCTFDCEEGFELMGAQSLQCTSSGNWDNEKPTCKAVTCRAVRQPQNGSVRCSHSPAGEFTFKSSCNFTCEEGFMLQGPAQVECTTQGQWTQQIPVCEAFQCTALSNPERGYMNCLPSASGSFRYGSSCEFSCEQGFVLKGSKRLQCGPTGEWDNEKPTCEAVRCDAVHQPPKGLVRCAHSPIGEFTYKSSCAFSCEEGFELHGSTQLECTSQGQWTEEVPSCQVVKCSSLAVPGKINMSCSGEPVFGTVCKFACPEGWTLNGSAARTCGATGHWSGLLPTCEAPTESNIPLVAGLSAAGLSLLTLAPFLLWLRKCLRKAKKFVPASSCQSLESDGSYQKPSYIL
Briefly: cell_activity; inhibition of HL-60 adhesion to ES-Endo, 4 C; 80% at 100 nM. On the procedure:
On the basis of specific binding of ESTA-1 to E-selectin, a study was done to determine the effect of ESTA-1 on adhesion of sLe^X positive cells to endothelial cells. Confluent E-selectin expressing ES-Endo cells were incubated with doxycycline for 5 hours followed by ESTA-1 (50 nM, 100 nM) for 20 minutes. HL-60 cells a human promyelomonocytic cell line, or cells from two breast cancer cell lines (MDA-MB-231 and MDA-MB-468: 10^5 cells) suspended in RPMI containing 1% FBS were added to ES-Endo and incubated at 4° C. for 30 minutes with mild agitation. The unbound cells were washed off with RPMI containing 1% FBS. The number of cells that adhered to the ES-Endo was counted on at least 3 random areas using a light microscope (final magnification 100×) and expressed as the mean of triplicate experiments. […] HL-60 cell adhesion to ES-Endo increased by 5-fold when E-selectin expression was induced by doxycycline (FIG. 12A). Pretreatment of the E-selectin expressing ES-Endo with ESTA-1 inhibited HL-60 adhesion by 80% at 100 nM ESTA-1 (FIG. 12A). […] Lastly, we tested cytotoxicity associated with ESTA-1 treatment in ES-Endo cells. ES-Endo cells were first incubated with doxycycline for 5 hours and then with increasing concentration of ESTA-1 (up to 200 nM) for 48 hours. MTT assay was performed to test cell viability.

A further data set has as its target T2, L-selectin (Homo sapiens, UniProt P14151 P14151:39-332).
T2 sequence: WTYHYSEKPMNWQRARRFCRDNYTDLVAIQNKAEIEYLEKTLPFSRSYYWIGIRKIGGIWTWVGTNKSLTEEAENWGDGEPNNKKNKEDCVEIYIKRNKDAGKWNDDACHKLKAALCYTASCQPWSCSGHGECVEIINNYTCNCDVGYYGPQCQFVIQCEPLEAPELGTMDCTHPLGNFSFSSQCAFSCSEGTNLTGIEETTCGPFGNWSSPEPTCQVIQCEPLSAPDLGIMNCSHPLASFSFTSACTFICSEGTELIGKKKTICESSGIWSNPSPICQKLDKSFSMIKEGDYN
Briefly: EMSA; binding not detectable under the same conditions. The text has this: Protein-bound TA and unbound TA were quantified using ImageJ software. The binding curves were generated assuming a single binding site curve fits using the Graph Pad Prism software.
To evaluate the binding affinity of ESTA-1 to all selectins, an electrophoretic mobility shift assay (EMSA) was utilized. To determine the binding constant, fixed amounts of ESTA-1 was mixed with increasing amounts of recombinant protein (E-, P-, and L-selectin). ESTA-1 (4.6 pmoles) and recombinant human selectin protein (up to 19 pmoles) were incubated and subjected to electrophoresis at 4° C. The gels were stained with SYBR Gold nucleic acid stain and densitometric analysis of the unbound ESTA-1 was plotted using E-selectin or P-selectin recombinant protein. […] As expected, the amounts of ESTA-1/E-selectin complexes reached saturation at a molar ratio of 1:1, when both of the binding molecules are at a concentration of 500 nM. Based on the densitometric analysis, the binding constant calculated for the ESTA-1 binding to E-selectin was 47 nM (FIG. 11A). […] ESTA-1 binding to L-selectin was not detectable under the same conditions. […] To further validate the binding affinity of ESTA-1 under biological conditions, different concentrations of ESTA-1 (50-200 nM) were incubated with ES-Endo cells induced with doxycycline. […] ESTA-1 binding was analyzed by fluorescent imaging.

B1: ESTA-1 (TA-1) (ssDNA)
DNA: CGCTCGGATCGATAAGCTTCGATCCCACTCTCCCGTTCACTTCTCCTCACGTCACGGATCCTCTAGAGCACTG
modifications: 5'-monothiophosphate (Rp) on all dA except in primer-binding region
As a reminder, the Kd is a measure of binding affinity in units of concentration. One may read the IC50 as the point on the concentration scale where inhibition reaches its midpoint. In the case of B1, the Kd with P-selectin was about 13 µM. In data set [1], the IC50 is about 0.063 µM. Moreover, the binding result in the data set with L-selectin is given as “no binding”.
